Data: patent WO2012028683A1 (dated 2012)

Target: T1, recombinant human SOST (human, UniProt Q9BQB4 24-213, labeled with Cy5 (site not stated))
T1 construct: Acceptor-labelled partner in the FRET assay; also called sclerostin; Cy5-SOST
T1 sequence (looked up): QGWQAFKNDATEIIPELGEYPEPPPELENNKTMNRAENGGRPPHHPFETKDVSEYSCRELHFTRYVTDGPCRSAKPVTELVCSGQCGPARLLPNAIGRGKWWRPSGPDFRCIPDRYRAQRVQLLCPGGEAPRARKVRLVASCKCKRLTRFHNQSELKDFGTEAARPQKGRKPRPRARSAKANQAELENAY
Assay: FRET competition assay (inhibition of SOST binding to LRP6(Fc)), antibody released from the PBS gel

binding result: binds
B1: ANTIBODY 1 (antibody, human IgG2, lambda, V domains shown)
VH: QVQLVESGGGLVQPGGSLRLSCAASGFTFRSHWLSWVRQAPGKGLEWVSNINYDGSSTYYADSVKGRFTISRDNSKNTLYLQMNSLRAEDTAVYYCARDTYLHFDYWGQGTLVTVSS
VL: DIALTQPASVSGSPGQSITISCTGTSSDVGDINDVSWYQQHPGKAPKLMIYDVNNRPSGVSNRFSGSKSGNTASLTISGLQAEDEADYYCQSYAGSYLSEVFGGGTKLTVLG
notes: also called anti-sclerostin antibody; mAb
